We go through 15 substances from patent publication US20210238260A1.

The IC50 is the point on the concentration scale where inhibition reaches its midpoint. Lower therefore signals higher potency.

Assay [1] deals with Antithrombin III (ATIII) (human) (UniProt P01008). In words: inhibition of FIXa by ATIII, residual FIXa activity; heparin not given.
Assay [2] concerns the target plasma purified human antithrombin III (AT-III), in complex with unfractionated heparin (UFH) (human) (UniProt P01008). In words: inhibition of FIXa by AT-III/UFH, residual activity on Mesyl-D-CHG-Gly-Arg-AMC, pseudo-first-order.
The target in assay [3] is antithrombin III (plasma purified human AT-III, Molecular Innovations) (human) (UniProt P01008). As to the kind of experiment: AT-III/UFH inhibition of FIXa cleavage of Mesyl-D-CHG-Gly-Arg-AMC; K0.5 = AT-III conc. for 50% inhibition (AT-III varied).
Assay [4] deals with plasma purified human antithrombin III (AT-III), in complex with unfractionated heparin (UFH) (human) (UniProt P01008). As to the kind of experiment: K0.5: AT-III conc. (with UFH) for 50% inhibition of FIXa cleavage of Mesyl-D-CHG-Gly-Arg-AMC.
Assay [5] has as its target Factor VIIIa (recombinant FVIII, Kogenate FS, activated with alpha-thrombin) (UniProt P00451). As to the kind of experiment: apparent functional KD (KD-app): FXa generation by FIXa with FVIIIa titrated, PC/PS vesicles, saturating FX, fluorogenic Spectrafluor FXa.
Assay [6] concerns the target FIXa D104N/K106S/Y155F/K247N/N249S (human) (UniProt P00740). As to the kind of experiment: cell-based or functional assay.
The target in assay [7] is FIXa D203Y (human) (UniProt P00740). As to the kind of experiment: cell-based or functional assay.
Assay [8] concerns the target FIXa D104N/K106S/Y155F/N260S (human) (UniProt P00740). In words: cell-based or functional assay.
Assay [9] concerns the target FIXa V202M (human) (UniProt P00740). In words: cell-based or functional assay.
Assay [10] addresses FIXa R318Y (human) (UniProt P00740). In words: cell-based or functional assay.
The target in assay [11] is FIXa Y155F/K247N/N249S (human) (UniProt P00740). As to the kind of experiment: cell-based or functional assay.
Assay [12] has as its target FIXa R318A (human) (UniProt P00740). As to the kind of experiment: cell-based or functional assay.
Assay [13] deals with FIXa N260S (human) (UniProt P00740). As to the kind of experiment: cell-based or functional assay.
For assay [14], the target named is FIXa K413N (human) (UniProt P00740). As to the kind of experiment: cell-based or functional assay.
In assay [15] the target is FIXa Y284N (human) (UniProt P00740). In words: cell-based or functional assay.
For assay [16], the target named is FIXa K400E/R403E (human) (UniProt P00740). As to the kind of experiment: cell-based or functional assay.
Assay [17] addresses FIXa A103N/N105S/K247N/N249S (human) (UniProt P00740). In words: cell-based or functional assay.
Assay [18] addresses FIXa T241N/H243S (human) (UniProt P00740). As to the kind of experiment: cell-based or functional assay.
Assay [19] concerns the target FIXa R312Y (human) (UniProt P00740). As to the kind of experiment: cell-based or functional assay.
Assay [20] has as its target FIXa A204M (human) (UniProt P00740). As to the kind of experiment: cell-based or functional assay.
For assay [21], the target named is FIXa A103N/N105S/I251S (human) (UniProt P00740). In words: cell-based or functional assay.
The target in assay [22] is FIXa R318N/A320S (human) (UniProt P00740). As to the kind of experiment: cell-based or functional assay.
Assay [23] deals with FIXa F314N/H315S (human) (UniProt P00740). As to the kind of experiment: cell-based or functional assay.
Assay [24] deals with FIXa Y155F/N260S (human) (UniProt P00740). As to the kind of experiment: cell-based or functional assay.
For assay [25], the target named is FIXa E239N (human) (UniProt P00740). In words: cell-based or functional assay.
Assay [26] addresses FIXa E410N (human) (UniProt P00740). As to the kind of experiment: cell-based or functional assay.
Assay [27] concerns the target FIXa D203M (human) (UniProt P00740). In words: cell-based or functional assay.
The target in assay [28] is FIXa D104N/K106S/N260S (human) (UniProt P00740). In words: cell-based or functional assay.
Assay [29] concerns the target FIXa D85N/D104N/K106S/I251S (human) (UniProt P00740). In words: cell-based or functional assay.
Assay [30] concerns the target FIXa R318E (human) (UniProt P00740). In words: cell-based or functional assay.
Assay [31] addresses FIXa R403A (human) (UniProt P00740). As to the kind of experiment: cell-based or functional assay.
Assay [32] deals with FIXa K400A/R403A (human) (UniProt P00740). As to the kind of experiment: cell-based or functional assay.

Factor VIIIa (recombinant FVIII, Kogenate FS, activated with alpha-thrombin), sequence (P00451 other isoform, or with tags, fused parts or gaps limits assumed): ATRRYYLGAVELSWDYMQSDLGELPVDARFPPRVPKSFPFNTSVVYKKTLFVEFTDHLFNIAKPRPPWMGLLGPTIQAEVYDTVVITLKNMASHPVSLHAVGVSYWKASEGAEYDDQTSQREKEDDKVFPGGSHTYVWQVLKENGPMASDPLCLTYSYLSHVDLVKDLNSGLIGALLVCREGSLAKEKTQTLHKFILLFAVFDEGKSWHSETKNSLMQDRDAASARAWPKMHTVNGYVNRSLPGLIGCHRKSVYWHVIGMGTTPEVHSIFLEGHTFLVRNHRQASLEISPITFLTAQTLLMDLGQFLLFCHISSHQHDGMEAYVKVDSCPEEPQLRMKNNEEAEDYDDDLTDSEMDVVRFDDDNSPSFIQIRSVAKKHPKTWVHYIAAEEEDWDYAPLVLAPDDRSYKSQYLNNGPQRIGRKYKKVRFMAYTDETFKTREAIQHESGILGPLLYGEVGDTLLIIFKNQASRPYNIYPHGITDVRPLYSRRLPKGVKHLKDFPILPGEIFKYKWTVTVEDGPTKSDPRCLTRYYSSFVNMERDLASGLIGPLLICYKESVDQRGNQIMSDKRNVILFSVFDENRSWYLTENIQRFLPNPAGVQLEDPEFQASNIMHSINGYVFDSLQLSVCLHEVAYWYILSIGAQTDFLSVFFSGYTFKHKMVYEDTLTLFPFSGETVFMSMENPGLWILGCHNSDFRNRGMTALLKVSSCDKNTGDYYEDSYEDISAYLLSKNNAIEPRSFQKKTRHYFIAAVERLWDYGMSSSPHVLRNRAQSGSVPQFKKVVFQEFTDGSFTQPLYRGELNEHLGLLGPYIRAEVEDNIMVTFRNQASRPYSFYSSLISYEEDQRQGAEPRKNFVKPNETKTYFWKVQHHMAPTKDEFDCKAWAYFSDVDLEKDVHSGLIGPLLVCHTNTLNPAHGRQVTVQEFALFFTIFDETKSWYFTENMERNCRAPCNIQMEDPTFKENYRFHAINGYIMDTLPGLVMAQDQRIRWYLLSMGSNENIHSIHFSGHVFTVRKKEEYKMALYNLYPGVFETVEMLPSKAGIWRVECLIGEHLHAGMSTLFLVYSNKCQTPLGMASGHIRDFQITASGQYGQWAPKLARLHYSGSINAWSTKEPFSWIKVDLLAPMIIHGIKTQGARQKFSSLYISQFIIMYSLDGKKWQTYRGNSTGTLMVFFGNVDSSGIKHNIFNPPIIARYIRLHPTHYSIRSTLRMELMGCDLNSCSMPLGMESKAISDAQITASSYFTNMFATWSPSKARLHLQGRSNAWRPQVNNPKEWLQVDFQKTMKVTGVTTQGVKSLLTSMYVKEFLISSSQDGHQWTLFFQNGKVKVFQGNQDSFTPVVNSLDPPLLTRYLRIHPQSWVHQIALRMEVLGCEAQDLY

On to “BeneFIX Coagulation Factor IX (Recombinant) (activated, FIXa) (from UniProt P00740 47-191; P00740 227-461) (enzyme)”, for which the ATIII Kapp (second-order rate constant of inhibition) in assay [1] came to 1.6e+07 M⁻¹ s⁻¹.

Consider “FIX of SEQ ID NO: 394, with the replacements R318Y/R338E/T343R (activated, FIXa) (from UniProt P00740 47-191; P00740 227-461) (enzyme)”, for which the ATIII Kapp (second-order rate constant of inhibition) in [1] is 1.1e+06 M⁻¹ s⁻¹.

For “FIXa-Y155F/K247N/N249S/R318Y/T343R/R403E/E410N (from UniProt P00740 47-191; P00740 227-461) (enzyme)”, the kapp (apparent second-order rate constant for inhibition) in [2] amounted to 28000 M⁻¹ s⁻¹.

“FIXa-Y155F/K247N/N249S/R338E/E410N (from UniProt P00740 47-191; P00740 227-461) (enzyme)”: in [2], the kapp (apparent second-order rate constant for inhibition) was determined as 2.9e+06 M⁻¹ s⁻¹.

For the substance “FIXa-Y155F/K247N/N249S/R338E/T343R/R403E (from UniProt P00740 47-191; P00740 227-461) (enzyme)”, in [2], the kapp (apparent second-order rate constant for inhibition) came to 44000 M⁻¹ s⁻¹.

As for “FIXa-Y155F/K247N/N249S/R403E/E410N (from UniProt P00740 47-191; P00740 227-461) (enzyme)”, in assay [2], the kapp (apparent second-order rate constant for inhibition) was 130000 M⁻¹ s⁻¹.

With “FIXa-Y155F/K247N/N249S/T343R/R403E/E410N (from UniProt P00740 47-191; P00740 227-461) (enzyme)”, the kapp (apparent second-order rate constant for inhibition) in assay [2] came out at 620000 M⁻¹ s⁻¹.

As to “FIXa-Y155F/R318Y/T343R/E410N (from UniProt P00740 47-191; P00740 227-461) (enzyme)”, the kapp (apparent second-order rate constant for inhibition) in assay [2] worked out at 200000 M⁻¹ s⁻¹.

Consider “FIXa-Y155F/R318Y/T343R/R403E (from UniProt P00740 47-191; P00740 227-461) (enzyme)”, for which, in assay [2], the kapp (apparent second-order rate constant for inhibition) was 11000 M⁻¹ s⁻¹.

Turning to “FIXa-Y155F/R338E/T343R/E410N (from UniProt P00740 47-191; P00740 227-461) (enzyme)”, in assay [2], the kapp (apparent second-order rate constant for inhibition) was 1.3e+07 M⁻¹ s⁻¹.

In the case of “FIXa-Y155F/T343R/R403E/E410N (from UniProt P00740 47-191; P00740 227-461) (enzyme)”, in [2], the kapp (apparent second-order rate constant for inhibition) is 880000 M⁻¹ s⁻¹.

In assay [3], “Plasma Purified FIXa (Haematologic Technologies, Inc.) (from UniProt P00740 47-191; P00740 227-461) (enzyme)” showed an IC50 of 0.03 µM.

“Plasma Purified FIXa (from UniProt P00740 47-191; P00740 227-461) (enzyme)” yielded an IC50 in [4] of 0.03 µM. Moreover, in assay [5], the Kd came to 0.102 µM.

In the case of “WT-recombinant FIX (native amino-acid sequence, made in the Sponsor's laboratory; activated, FIXa) (from UniProt P00740 47-191; P00740 227-461) (enzyme)”, the ATIII Kapp (second-order rate constant of inhibition) in assay [1] was 2.4e+07 M⁻¹ s⁻¹.

“plasma purified human AT-III (antithrombin III), in complex with full-length unfractionated heparin (from UniProt P01008 33-464)”: the K0.5 (nM), inhibition of FIXa by AT-III/UFH in assay [6] came to 27 nM; in assay [7], 16 nM; in assay [8] it was 292 nM; in assay [9], 14 nM; in assay [10], 1980 nM; in assay [11], 13 nM. The K0.5 (nM), inhibition of FIXa by AT-III/UFH was 4140 nM in assay [12]; 312 nM in [13]; 27 nM in assay [14]; 41 nM in assay [15]; > 999 nM in assay [16]; 53 nM in [17]. For the same substance, the K0.5 (nM), inhibition of FIXa by AT-III/UFH is 21 nM in [18]; 2500 nM in [19]; 29 nM in assay [20]; 42 nM in [21]; > 999 nM in assay [22]; 104 nM in assay [23]. Further, the K0.5 (nM), inhibition of FIXa by AT-III/UFH in assay [24] was determined as 77 nM; in assay [25], 132 nM; in assay [26] it was 9 nM; in [27] it was 11 nM; in assay [28], 228 nM; in assay [29], 28 nM. Moreover, the K0.5 (nM), inhibition of FIXa by AT-III/UFH in assay [30] is > 10000 nM; in [31], 190 nM; in [32], > 999 nM.
